To fix the notation:
B1: Hairpin Ribozyme (parent)
chain: GUCCUCUUUCACGUGCGCGUGAAAGAGAGAAGUGAACCAGAGAAACACACGUUGUGGUAUAUUACCUGGUA

The variants in the series derive from B1. Nature of the series: self-cleavage, relative activity (ratio to wild type); higher = more cleavage; co-transcriptional.
As for GUCCUCUUUCACGUGCGCGUGACAGAGAGAAGUGAACCAGAGAAACACCCGUUGUGGUAUAUUACCUGGUA, the self-cleavage stood at 0.136. The figure for GUCCUCUUUCACGUGCGCGUGAGAGAGAGAAGUGAACCAGAGAAACACACGUGGUGGUAUAUUACCUGGUA is 0.706; for GUCCUCUUUCACGUGCGCGUGAGAGAGAGAAGUGAACCCGAGAAACACACGUUGUGGUAUAUUACCUGGUA it is 0.408; for GUCCUCUUUCACGUGCGCGUGAGAGAGAGAAGUGAACCGGAGAAACACACGUUGUGGUAUAUUACCUGGUA it is 0.353. The figure for GUCCUCUUUCACGUGCGCGUGAGAGAGAGAAGUGAACCUGAGAAACACACGUUGUGGUAUAUUACCUGGUA is 0.252; for GUCCUCUUUCACGUGCGCGUGAGAGAGAGAAGUUAACCAGAGAAACACACGUUGUGGUAUAUUACCUGGUA it is 1.29.

With GUCCUCUUUCACGUGCGCGUGACAGAGAGAAGAGAACCAGAGAAACACACGUUGUGGUAUAUUACCUGGUA, the self-cleavage came out at 0.109. Consider GUCCUCUUUCACGUGCGCGUGACAGAGAGAAGUGAACCAGAGAAACACACGUUGUGGUUUAUUACCUGGUA, for which the self-cleavage came out at 0.174. As for GUCCUCUUUCACGUGCGCGUGACAGAGAGAAGUGAACCAGAGAAACACACGUUGUGGUAUAUUAGCUGGUA, the self-cleavage came to 0.186.

Turning to GUCCUCUUUCACGUGCGCGUGAGAGAGAGAAGUGAACCAGAGAAACACCCGUUGUGGUAUAUUACCUGGUA, the self-cleavage was 0.159.

Consider GUCCUCUUUCACGUGCGCGUGAGAGAGAGAAGUGAACCAGAGAAACACGCGUUGUGGUAUAUUACCUGGUA, for which the self-cleavage came to 0.426. The figure for GUCCUCUUUCACGUGCGCGUGACAGAGAGAAGUGAACCAGAGAAACACACGUUGGGGUAUAUUACCUGGUA is 0.359; for GUCCUCUUUCACGUGCGCGUGACAGAGAGAAGUGAACCAGAGAAACACACGUUGAGGUAUAUUACCUGGUA it is 0.17. The figure for GUCCUCUUUCACGUGCGCGUGACAGAGAGAAGUGAACCAGAGAAACACACGUUGUGGGAUAUUACCUGGUA is 0.674; for GUCCUCUUUCACGUGCGCGUGACAGAGAGAAGUGAACCAGAGAAACACACGUUGUGGUAUAAUACCUGGUA it is 0.229; for GUCCUCUUUCACGUGCGCGUGAGAGAGUGAAGUGAACCAGAGAAACACACGUUGUGGUAUAUUACCUGGUA it is 0.417. Next, GUCCUCUUUCACGUGCGCGUGACAGAGAGAAGUGAACCAGAGAAACACACGUUGUGGUAUAUUACGUGGUA: 0.166. As to GUCCUCUUUCACGUGCGCGUGACAGAGAGAAGUGAACCAGAGAAACACACGUUGUGGUAUAUGACCUGGUA, the self-cleavage came out at 0.273. Consider GUCCUCUUUCACGUGCGCGUGACAGAGAGAAGUGAACCAGAGAAACACACGUUGUGGUAUAUAACCUGGUA, for which the self-cleavage was 0.238. For the variant GUCCUCUUUCACGUGCGCGUGAGAGAGAGAAGUGAACCAGAGAAACACACGUUGUGGUAUAUUACCUGAUA, the self-cleavage is 0.369. Next, GUCCUCUUUCACGUGCGCGUGAGACAGAGAAGUGAACCAGAGAAACACACGUUGUGGUAUAUUACCUGGUA: 0.521; GUCCUCUUUCACGUGCGCGUGAGCGAGAGAAGUGAACCAGAGAAACACACGUUGUGGUAUAUUACCUGGUA: 0.648. Next, GUCCUCUUUCACGUGCGCGUGAGUGAGAGAAGUGAACCAGAGAAACACACGUUGUGGUAUAUUACCUGGUA: 0.651; GUCCUCUUUCACGUGCGCGUGAGAGAGAGAAGUGAACCAGAGAAACACACGUUGUGGUAUAUUAGCUGGUA: 0.392; GUCCUCUUUCACGUGCGCGUGACAGAGAGAAGUGAACCAGAGGAACACACGUUGUGGUAUAUUACCUGGUA: 0.0715. The figure for GUCCUCUUUCACGUGCGCGUGACAGAGAGAAGUGAACCAGAGCAACACACGUUGUGGUAUAUUACCUGGUA is 0.146; for GUCCUCUUUCACGUGCGCGUGACAGAGAGAAGUUAACCAGAGAAACACACGUUGUGGUAUAUUACCUGGUA it is 1.14; for GUCCUCUUUCACGUGCGCGUGACAGAGAGAAGUAAACCAGAGAAACACACGUUGUGGUAUAUUACCUGGUA it is 1.1. As for GUCCUCUUUCACGUGCGCGUGACAGAGAGAAGUCAACCAGAGAAACACACGUUGUGGUAUAUUACCUGGUA, the self-cleavage was 1.26. Next, GUCCUCUUUCACGUGCGCGUGAGAGAGAGAAGUGACCCAGAGAAACACACGUUGUGGUAUAUUACCUGGUA: 0.69. The figure for GUCCUCUUUCACGUGCGCGUGAGAGAGAGAAGUGAACCAGAGAAACACACGUUGUGGUAAAUUACCUGGUA is 0.694; for GUCCUCUUUCACGUGCGCGUGAGAGAGAGAAGUGAACCAGGGAAACACACGUUGUGGUAUAUUACCUGGUA it is 0.678. The figure for GUCCUCUUUCACGUGCGCGUGACAGAGAGAAGUGAACCAGAGAAACACACGUUGUGGUAUAUUACCUGCUA is 0.244. As to GUCCUCUUUCACGUGCGCGUGACAGAGAGAAGUGAACCAGAGAAACACACGUUGUGGUAUAUUACCUGAUA, the self-cleavage came to 0.379. Next, GUCCUCUUUCACGUGCGCGUGAGAGAGAGAAGUGAACCAGAGAAACACACGUUGUAGUAUAUUACCUGGUA: 0.186; GUCCUCUUUCACGUGCGCGUGACAGAGAGAAGUGAACCAGAGAAACACACGUUGUGGUAUAUUACCGGGUA: 0.27; GUCCUCUUUCACGUGCGCGUGAGAGAGAGAAGUGAACCAGAGAAACACACUUUGUGGUAUAUUACCUGGUA: 1.01. The figure for GUCCUCUUUCACGUGCGCGUGAGAGAGAGAAGUGAACCAGAGAAACACACGUUGUGUUAUAUUACCUGGUA is 0.142; for GUCCUCUUUCACGUGCGCGUGACAGAGAGAAGUGAACCAGAGAAACACACGUUGUUGUAUAUUACCUGGUA it is 0.1.

With GUCCUCUUUCACGUGCGCGUGAGAGAGAGAAGUGAACCAGAGAAACACACGUUGUGGUAUAUUACCUGGUG, the self-cleavage is 0.975.

Take GUCCUCUUUCACGUGCGCGUGAGAGAGAGAAGUGAACCAGAGAAACACACGUUGUGGUAUAUUACCUGGUU: the self-cleavage was 0.634. Regarding GUCCUCUUUCACGUGCGCGUGAGAGAGAGAAGUGAACCAGAGAAACACACGUUGUGGUAUUUUACCUGGUA, the self-cleavage is 0.138. The figure for GUCCUCUUUCACGUGCGCGUGACAGAGAGAAGUGAACCAGAGAAACACACGUAGUGGUAUAUUACCUGGUA is 0.757. Next, GUCCUCUUUCACGUGCGCGUGAGAGAGAGAAGUGAAUCAGAGAAACACACGUUGUGGUAUAUUACCUGGUA: 0.466; GUCCUCUUUCACGUGCGCGUGACAGAGAGAAGUGAACCAGUGAAACACACGUUGUGGUAUAUUACCUGGUA: 0.911; GUCCUCUUUCACGUGCGCGUGAGAGAGAGAAGUGAACCAGAGAAACACACGUUGUGGUAUAUCACCUGGUA: 0.148. For GUCCUCUUUCACGUGCGCGUGACAGAGAGAAGUGAACCAGAGAAAAACACGUUGUGGUAUAUUACCUGGUA, the self-cleavage is 0.131. As to GUCCUCUUUCACGUGCGCGUGACAGAGAGAAGUGAACCAGAGAAACACACGUUGUGGUAUAUUACCUGGCA, the self-cleavage amounted to 1.06. The figure for GUCCUCUUUCACGUGCGCGUGAGAGAGAGAAGUGAACCAGAGAAACACACGUUGUGGUGUAUUACCUGGUA is 0.184. On to GUCCUCUUUCACGUGCGCGUGAGAGUGAGAAGUGAACCAGAGAAACACACGUUGUGGUAUAUUACCUGGUA, for which the self-cleavage worked out at 0.842. As to GUCCUCUUUCACGUGCGCGUGAGAGAGAGAAGUGAACCAGAGUAACACACGUUGUGGUAUAUUACCUGGUA, the self-cleavage was found to be 0.184.

On to GUCCUCUUUCACGUGCGCGUGAGAGAGAGAAGUGAACCAGAGGAACACACGUUGUGGUAUAUUACCUGGUA, for which the self-cleavage was 0.0591. On to GUCCUCUUUCACGUGCGCGUGACAGAGAGAAGUGAACCAGAGAAACACACGUUGUGGUAUAUUACCUAGUA, for which the self-cleavage came to 0.26.

Take GUCCUCUUUCACGUGCGCGUGAGAGAGAGAUGUGAACCAGAGAAACACACGUUGUGGUAUAUUACCUGGUA: the self-cleavage was determined as 0.0848.

For GUCCUCUUUCACGUGCGCGUGACAGAGAGAAGUGAACCAGAGAAACAAACGUUGUGGUAUAUUACCUGGUA, the self-cleavage was 0.0725. Turning to GUCCUCUUUCACGUGCGCGUGACAGAGAGAAGUGAACCAGAGAAACAGACGUUGUGGUAUAUUACCUGGUA, the self-cleavage came to 0.0948. Next, GUCCUCUUUCACGUGCGCGUGACAGAGAGAAGUGAACCAGAGAAACAUACGUUGUGGUAUAUUACCUGGUA: 0.202; GUCCUCUUUCACGUGCGCGUGACAGAGAGAAGUGAACCAGAGAACCACACGUUGUGGUAUAUUACCUGGUA: 0.0875. The figure for GUCCUCUUUCACGUGCGCGUGACAGAGAGAAGUGAAGCAGAGAAACACACGUUGUGGUAUAUUACCUGGUA is 0.159; for GUCCUCUUUCACGUGCGCGUGAGAGAGAGAAGUGAACGAGAGAAACACACGUUGUGGUAUAUUACCUGGUA it is 0.186; for GUCCUCUUUCACGUGCGCGUGAGAGAUAGAAGUGAACCAGAGAAACACACGUUGUGGUAUAUUACCUGGUA it is 0.254. For the variant GUCCUCUUUCACGUGCGCGUGAGAGAGAGAAGUGAACCAGAGAUACACACGUUGUGGUAUAUUACCUGGUA, the self-cleavage is 0.0965. The figure for GUCCUCUUUCACGUGCGCGUGAGAGAGAGAAGUGAACCAGAGAAACACACGAUGUGGUAUAUUACCUGGUA is 0.899; for GUCCUCUUUCACGUGCGCGUGAGAGAGAGAAGUGAACCAGAGAAACACACGCUGUGGUAUAUUACCUGGUA it is 0.713; for GUCCUCUUUCACGUGCGCGUGAGAGAGAGAAGUGAACCAGAGAAACACACGUUGUGGUAUAUUACCUGGAA it is 0.741. The figure for GUCCUCUUUCACGUGCGCGUGACAGAGAGAAGUGAACCAGAGAAACACACCUUGUGGUAUAUUACCUGGUA is 0.804. The figure for GUCCUCUUUCACGUGCGCGUGACAGAGAGAAGUGAACCAGAGAAACACACAUUGUGGUAUAUUACCUGGUA is 0.83; for GUCCUCUUUCACGUGCGCGUGAGAGAGAGAAGUGAACCAGAGAAACACAUGUUGUGGUAUAUUACCUGGUA it is 0.43. With GUCCUCUUUCACGUGCGCGUGAGAGAGAGAAGUGAACCAGAGAAACACACGUUGUGGCAUAUUACCUGGUA, the self-cleavage was 0.847. For GUCCUCUUUCACGUGCGCGUGACAUAGAGAAGUGAACCAGAGAAACACACGUUGUGGUAUAUUACCUGGUA, the self-cleavage is 0.172. Next, GUCCUCUUUCACGUGCGCGUGACACAGAGAAGUGAACCAGAGAAACACACGUUGUGGUAUAUUACCUGGUA: 0.147; GUCCUCUUUCACGUGCGCGUGACAGAGAGAAGUGAACCAGAGAAACACACGAUGUGGUAUAUUACCUGGUA: 0.875; GUCCUCUUUCACGUGCGCGUGACAGAGAGAAGUGAACCAGAGAAACACACGUUGUGCUAUAUUACCUGGUA: 0.192.

Turning to GUCCUCUUUCACGUGCGCGUGACAGAGAGAAGUGAACCAGAGAAACACACGUUGUGUUAUAUUACCUGGUA, the self-cleavage was 0.29. The figure for GUCCUCUUUCACGUGCGCGUGAGAGAGAGAAGUGAACCAGAGAAACACACGUUAUGGUAUAUUACCUGGUA is 0.489. For GUCCUCUUUCACGUGCGCGUGAGAGAGAGAAGUGAACCACAGAAACACACGUUGUGGUAUAUUACCUGGUA, the self-cleavage was found to be 0.16.

These data come from the RNAGym collection of RNA variant scans (doi:10.7554/elife.80360).
